These results are taken from patent publication US20250327097A1, “ORGANISMS PRODUCING LESS CROTONIC ACID” (Global Bioenergies, priority 2021, published 2025).

Where a chain is given by its changes, count along the chain named. Numbers in names are those of the source.

The labels stand for the following.
B1: I283T-N285P-N287T-Q290E-S322T-N388M-K394R-H419P-C430A-L432F-L434W-S436N-dG462 (protein)
chain: MFLKSLREQINLLKRQGDLRIINRPVDSYLEAAAIIRRSTETKAPVPLMTNIKGYPGCSIVGGLAALSSNPEYPLSRVAMSLGLSTTASAQSIVQYLIDGLKKTPYLPVEIDSNSAPCKQNILRGEDASLAHFPIPQVHQHDGNRYVNTWGVFIVESPDGQWCNWSIQRVQYLNDRQMIALVFPSQHISDIWEEWVKIGKPMPYALVQGCEPIVPYIAGLPLLERNVNEAEYIGALYGKGIEVVKCETHDLRVPASSEVVIEGYFAITREGVEGPFGEFAGYTPPETSLEPILSITAISWQDDPIWPVVAEGKPVDEYHTCTGIGDAAAIQNVLLTANLPVSFVWVPLYSACHLMIVSINRHWRQTHPDLTSEQLTKKVGDVIHQTRMSIKLPRIVVLDDDVDPADTESLLWALATRIPPERKRYFYESAIFPWLNCYSEEERHNRKGKRVIIDALLPENHGAISSFDYAYPDDIKQRVLMHWETDFSHD
B2: I283T-N285P-N287T-Q290E-S322T-N388M-K394R-C430A-I431A-L432F-L434W-S436N-dG462 (protein)
chain: B1 chain with P419H, I431A
B3: I283T-N285P-N287T-Q290E-S322T-N388M-K394R-C430A-L432F-L434W-S436N-C437T-dG462 (protein)
chain: B1 chain with P419H, C437T
B4: N332H-N388M-K394R-C430N-L432F-L434W-S436N (protein)
chain: B1 chain with T283I, P285N, T287N, E290Q, T322S, N332H, P419H, A430N
B5: I283T-N285P-N287T-Q290E-S322T-N388M-K394R-S429V-C430A-L432F-L434W-S436N-dG462 (protein)
chain: B1 chain with P419H, S429V
B6: I283T-N285P-N287T-Q290E-S322T-N388M-K394R-C430A-I431T-L432F-L434W-S436N-dG462 (protein)
chain: B1 chain with P419H, I431T
B7: I283T-N285P-N287T-Q290E-S322T-N388M-K394R-i421aE-C430A-L432F-L434W-S436N-dG462 (protein)
chain: B1 chain with P419H
B8: I283T-N285P-N287T-Q290E-S322T-N388M-K394R-C430A-I431C-L432F-L434W-S436N-dG462 (protein)
chain: B1 chain with P419H, I431C
B9: I283T-N285P-N287T-Q290E-S322T-N388M-K394R-C430A-L432F-L434W-S436N-C437M-dG462 (protein)
chain: B1 chain with P419H, C437M
B10: I283T-N285P-N287T-Q290E-S322T-N388M-K394R-E421L-C430A-L432F-L434W-S436N-dG462 (protein)
chain: B1 chain with P419H, E421L
B11: I283T-N285P-N287T-Q290E-S322T-N388M-K394R-C430S-L432F-L434W-S436N-dG462 (protein)
chain: B1 chain with P419H, A430S
B12: I283T-N285P-N287T-Q290E-S322T-N388M-K394R-i421aI-C430A-L432F-L434W-S436N-dG462 (protein)
chain: B1 chain with P419H
B13: I283T-N285P-N287T-Q290E-S322T-N388M-K394R-C430A-L432F-L434W-S436N-C437I-dG462 (protein)
chain: B1 chain with P419H, C437I
B14: I283T-N285P-N287T-Q290E-S322T-N388M-K394R-i421aT-C430A-L432F-L434W-S436N-dG462 (protein)
chain: B1 chain with P419H
B15: N287V-N388M-K394R-C430N-L432F-L434W-S436N (protein)
chain: B1 chain with T283I, P285N, T287V, E290Q, T322S, P419H, A430N
B16: I283T-N285P-N287T-Q290E-S322T-N388M-K394R-H419A-C430A-L432F-L434W-S436N-dG462 (protein)
chain: B1 chain with P419A
B17: I283T-N285P-N287T-Q290E-S322T-N388M-K394R-E421F-C430A-L432F-L434W-S436N-dG462 (protein)
chain: B1 chain with P419H, E421F
B18: I283T-N285P-N287T-Q290E-S322T-N388M-K394R-i421aR-C430A-L432F-L434W-S436N-dG462 (protein)
chain: B1 chain with P419H
B19: I283T-N285P-N287T-Q290E-S322T-N388M-K394R-C430A-L432F-L434W-S436N-Y438W-dG462 (protein)
chain: B1 chain with P419H, Y438W
B20: I283T-N285P-N287T-Q290E-S322T-N388M-K394R-i421aP-C430A-L432F-L434W-S436N-dG462 (protein)
chain: B1 chain with P419H
B21: I283T-N285P-N287T-Q290E-S322T-N388M-K394R-i421aD-C430A-L432F-L434W-S436N-dG462 (protein)
chain: B1 chain with P419H
B22: I283T-N285P-N287T-Q290E-S322T-N388M-K394R-C430A-L432F-L434W-S436N-K447T-dG462 (protein)
chain: B1 chain with P419H, K447T
B23: I283T-N285P-N287T-Q290E-S322T-N388M-K394R-C430A-I431P-L432F-L434W-S436N-dG462 (protein)
chain: B1 chain with P419H, I431P
B24: I283T-N285P-N287T-Q290E-S322T-N388M-K394R-i421aS-C430A-L432F-L434W-S436N-dG462 (protein)
chain: B1 chain with P419H
B25: I283T-N285P-N287T-Q290E-S322T-N388M-K394R-C430A-I431K-L432F-L434W-S436N-dG462 (protein)
chain: B1 chain with P419H, I431K
B26: I283T-N285P-N287T-Q290E-S322T-N388M-K394R-C430A-L432F-L434W-S436N-C437L-dG462 (protein)
chain: B1 chain with P419H, C437L
B27: I283T-N285P-N287T-Q290E-S322T-N388M-K394R-C430A-I431N-L432F-L434W-S436N-dG462 (protein)
chain: B1 chain with P419H, I431N
B28: I283T-N285P-N287T-Q290E-S322T-N388M-K394R-C430A-L432F-L434W-S436N-Y438M-dG462 (protein)
chain: B1 chain with P419H, Y438M
B29: I283T-N285P-N287T-Q290E-S322T-N388M-K394R-C430A-L432F-L434W-S436N-G448C-dG462 (protein)
chain: B1 chain with P419H, G448C
B30: D27N-I283T-N285P-N287T-Q290E-S322T-N388M-K394R-C430A-L432F-L434W-S436N-G448T-dG462 (protein)
chain: B1 chain with D27N, P419H, G448T
B31: P284E-N388M-K394R-C430N-L432F-L434W-S436N (protein)
chain: B1 chain with T283I, P284E, P285N, T287N, E290Q, T322S, P419H, A430N
B32: I283T-N285P-N287T-Q290E-S322T-N388M-K394R-C430A-L432F-L434W-S436N-S439P-dG462 (protein)
chain: B1 chain with P419H, S439P

The assay has as its system 3-methylcrotonic acid. The format is biochemical, Yersinia frederiksenii. Also noted: key: “+” representing a low increase in activity; “++++” representing a high increase in activity.
Regarding B1, the “Activity relative to WT” value is listed as “++++”.

Regarding B2, the “Activity relative to WT” value is “++++”.

In the case of B3, the “Activity relative to WT” value was “++++”.

For the molecule B4, the “Activity relative to WT” value is reported as “+”.

For B5, the “Activity relative to WT” value is listed as “++++”.

For the molecule B6, the “Activity relative to WT” value is recorded as “++++”.

Turning to B7, the “Activity relative to WT” value is on record as “++++”.

For the molecule B8, the “Activity relative to WT” value is given as “++++”.

Regarding B9, the “Activity relative to WT” value was “++++”.

As for B10, the “Activity relative to WT” value is given as “++++”.

For B11, the “Activity relative to WT” value is “++++”.

Take B12: the “Activity relative to WT” value was “++++”.

Take B13: the “Activity relative to WT” value is recorded as “++++”.

On to B14, for which the “Activity relative to WT” value is given as “++++”.

Regarding B15, the “Activity relative to WT” value was “+”.

Regarding B16, the “Activity relative to WT” value was “++++”.

Take B17: the “Activity relative to WT” value was “++++”.

On to B18, for which the “Activity relative to WT” value is recorded as “++++”.

In the case of B19, the “Activity relative to WT” value is listed as “++++”.

On to B20, for which the “Activity relative to WT” value was “++++”.

Regarding B21, the “Activity relative to WT” value is listed as “++++”.

Turning to B22, the “Activity relative to WT” value is reported as “++++”.

Consider B23, for which the “Activity relative to WT” value is listed as “++++”.

With B24, the “Activity relative to WT” value was “++++”.

B25: the “Activity relative to WT” value was “++++”.

Consider B26, for which the “Activity relative to WT” value is “++++”.

In the case of B27, the “Activity relative to WT” value was “++++”.

On to B28, for which the “Activity relative to WT” value is reported as “++++”.

For the molecule B29, the “Activity relative to WT” value was “++++”.

As for B30, the “Activity relative to WT” value is recorded as “++++”.

Regarding B31, the “Activity relative to WT” value is reported as “+”.

For B32, the “Activity relative to WT” value is “++++”.
